Experimental data taken from CN113214400A (FUKANG SHANGHAI HEALTH TECH CO LTD, dated 2021).

How the values were obtained:
[1] = target: T1, 小鼠PD-L1 (全长, 表达于293F细胞 WBP315.293F.mPro1.C1) (mouse, UniProt Q9EP73 19-290); experiment: flow cytometry on 293F cells expressing mouse PD-L1
T1 construct: whole, on cells; also called mouse PD-L1

[2] = target: T2, 人PD-L1 (全长, 表达于CHO-K1细胞 WBP315.CHO-K1.hPro1.C11) (human, UniProt Q9NZQ7 19-290); experiment: flow cytometry on CHO-K1 cells expressing human PD-L1
T2 construct: whole, on cells; also called human PD-L1; hPD-L1
T2 sequence (Q9NZQ7 19-290): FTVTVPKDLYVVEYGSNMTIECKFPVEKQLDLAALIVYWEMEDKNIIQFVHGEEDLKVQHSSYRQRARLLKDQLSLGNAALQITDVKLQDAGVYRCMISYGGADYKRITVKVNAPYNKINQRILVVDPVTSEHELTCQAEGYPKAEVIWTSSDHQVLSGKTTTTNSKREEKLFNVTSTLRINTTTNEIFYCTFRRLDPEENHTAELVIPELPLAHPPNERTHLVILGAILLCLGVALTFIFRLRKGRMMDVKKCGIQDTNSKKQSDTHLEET

T1 sequence (Q9EP73 19-290): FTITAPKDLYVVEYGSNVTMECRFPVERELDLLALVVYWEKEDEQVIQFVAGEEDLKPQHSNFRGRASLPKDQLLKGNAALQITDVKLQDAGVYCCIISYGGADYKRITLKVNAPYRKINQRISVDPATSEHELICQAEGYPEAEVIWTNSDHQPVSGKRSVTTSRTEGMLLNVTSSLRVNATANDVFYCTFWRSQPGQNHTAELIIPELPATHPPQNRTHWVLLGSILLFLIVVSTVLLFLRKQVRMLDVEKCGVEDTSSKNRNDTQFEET

binding result [1]: binds
binding result [2]: binds
B1: W3156-AP3R2-1A3-z12-hIgG1 (Fc fusion)
chain: EVQLVESGGGLVQPGGSLRLSCAASGHFSNLAVNWFRQAPGKERELVAGILWSGGSTFYADSVKGRFTISRGNAENMLYLQMNSLRAEDTAVYYCNTGTNWGQGTLVTVSS
notes: tested as hIgG1 format; also called 抗PD-L1 VHH抗体; 亲本抗体 (PD-L1 arm); not shown: hIgG1 part (hinge/Fc) of the VHH-hIgG1 format
